Positions count from the first letter of the chain named. In names and notes the source's numbering stands.
Tested on: Jurkat cells
Test: Tacrolimus dose response of FKBP13-AcGFP-mCherry constructs stably transduced into Jurkat cells, GFP MFI by flow cytometry
Format: cell-based
Parameters: Basal: unit not given here
Outline: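 Jurkat E6-1 cells lentivirally transduced with FKBP13-AcGFP-mCherry constructs to 10-25% mCherry+ (day 5) were dosed with tacrolimus. GFP geometric MFI in mCherry+ cells was measured by flow cytometry and fitted to dose-response curves.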

[1] = tacrolimus, Jurkat cells stably transduced, Table 6
[2] = tacrolimus, Jurkat cells, Table 13

B1: FKBP-141: FKBP13 DRD Q72R, Q84E, A117R, L52R; SEQ ID NO: 91 (protein)
chain: HCPIKSRKGDVRHMHYTGKLEDGTEFDSSLPRNQPFVFSLGTGEVIKGWDQGLLGMCEGEKRKLVIPSELGYGERGRPPKIPGGATLVFEVELLKIER
modifications: Description of sequence: FKBP13-AcGFP-mCherry Fusion; Construct Name: FKBP-141; FKBP13 DRD in Construct : FKBP13 (mutated to match FKBP12 active site Q72R Q84E A117R (DRD L52R))
[1]
  Fold Change: 1.00

B2: FKBP-146: FKBP13 DRD Q72R, Q84E, A117H, L104S, I136L; SEQ ID NO: 96 (protein)
chain: B1 chain with R12L, L64S, R77H, I96L
modifications: Description of sequence: FKBP13-AcGFP-mCherry Fusion; Construct Name: FKBP-146; FKBP13 DRD in Construct : FKBP13 (mutated to match FKBP12 active site Q72R Q84E A117H) (DRD L104S I136L)
[1]
  Fold Change: 1.19

B3: FKBP-262: FKBP13 DRD-AcGFP construct of Table 10 (protein)
chain: B1 chain with P3R, R12L, V45R, R77W, K95Y
modifications: Description of sequence: Construct Name: FKBP-262; Mutation(s): Q72R Q84E A117W V85R DRD P43R K135Y
FIG. 49, BR1 (Biorep 1)
  Basal: 59.5
  FC: 66.64
  At 10 uM: 3965
FIG. 49, BR2 (Biorep 2)
  Basal: 73.7
  FC: 52.21
  At 10 uM: 3848
tacrolimus, FIGS. 31 and 32
  FC: 73
[2]
  Fold Change: 73

B4: FKBP-142: FKBP13 DRD Q72R, Q84E, A117W, T64G; SEQ ID NO: 92 (protein)
chain: B1 chain with R12L, T24G, R77W
modifications: Description of sequence: FKBP13-AcGFP-mCherry Fusion; Construct Name: FKBP-142; FKBP13 DRD in Construct : FKBP13 (mutated to match FKBP12 active site Q72R Q84E A117W) (DRD T64G)
[1]
  Fold Change: 33.42

B5: FKBP-143: FKBP13 DRD Q72R, Q84G, A117H, P43R; SEQ ID NO: 93 (protein)
chain: B1 chain with P3R, R12L, E44G, R77H
modifications: Description of sequence: FKBP13-AcGFP-mCherry Fusion; Construct Name: FKBP-143; FKBP13 DRD in Construct : FKBP13 (mutated to match FKBP12 active site Q72R Q84G A117H) (DRD P43R)
[1]
  Fold Change: 14.97

B6: FKBP-149: FKBP13 DRD Q72R, Q84E, A117H, T64Q, L94G; SEQ ID NO: 99 (protein)
chain: B1 chain with R12L, T24Q, L54G, R77H
modifications: Description of sequence: FKBP13-AcGFP-mCherry Fusion; Construct Name: FKBP-149; FKBP13 DRD in Construct : FKBP13 (mutated to match FKBP12 active site Q72R Q84E A117H) (DRD T64Q L94G)
[1]
  Fold Change: 39.28

B7: FKBP-145: FKBP13 DRD Q72R, Q84E, A117H, H41S, E61D; SEQ ID NO: 95 (protein)
chain: B1 chain with H1S, R12L, E21D, R77H
modifications: Description of sequence: FKBP13-AcGFP-mCherry Fusion; Construct Name: FKBP-145; FKBP13 DRD in Construct : FKBP13 (mutated to match FKBP12 active site Q72R Q84E A117H) (DRD H41S E61D)
[1]
  Fold Change: 11.05

B8: FKBP-148: FKBP13 DRD Q72R, Q84E, A117H, D62N, D67N, D90N, M96G, E130K; SEQ ID NO: 98 (protein)
chain: B1 chain with R12L, D22N, D27N, D50N, M56G, R77H, E90K
modifications: Description of sequence: FKBP13-AcGFP-mCherry Fusion; Construct Name: FKBP-148; FKBP13 DRD in Construct : FKBP13 (mutated to match FKBP12 active site Q72R Q84E A117H) (DRD D62N D67N D90N M96G E130K)
[1]
  Fold Change: 1.09

B9: FKBP-266 (protein)
chain: B1 chain with D10L, R12L, V45R, R77W
modifications: Description of sequence: Construct Name: FKBP-266; Mutation(s): Q72R Q84E A117W V85R DRD D50L
[2]
  Fold Change: 60

B10: FKBP-267 (protein)
chain: B1 chain with R12L, V45R, M56W, R77W
modifications: Description of sequence: Construct Name: FKBP-267; Mutation(s): Q72R Q84E A117W V85R DRD M96W
[2]
  Fold Change: 67

B11: FKBP-260: FKBP13 DRD-AcGFP construct of Table 10 (protein)
chain: B1 chain with R12L, V45R, K61N, R77W
modifications: Description of sequence: Construct Name: FKBP-260; Mutation(s): Q72R Q84E A117W V85R DRD K101N
tacrolimus, FIGS. 31 and 32
  FC: 51
[2]
  Fold Change: 51

B12: FKBP-147: FKBP13 DRD Q72R, Q84E, A117H, T64R, S108G, E137F; SEQ ID NO: 97 (protein)
chain: B1 chain with R12L, T24R, S68G, R77H, E97F
modifications: Description of sequence: FKBP13-AcGFP-mCherry Fusion; Construct Name: FKBP-147; FKBP13 DRD in Construct : FKBP13 (mutated to match FKBP12 active site Q72R Q84E A117H) (DRD T64R S108G E137F)
[1]
  Fold Change: 26.65

B13: FKBP-150: FKBP13 DRD Q72R, Q84E, A117H, E61G, G124P; SEQ ID NO: 100 (protein)
chain: B1 chain with R12L, E21G, R77H, G84P
modifications: Description of sequence: FKBP13-AcGFP-mCherry Fusion; Construct Name: FKBP-150; FKBP13 DRD in Construct : FKBP13 (mutated to match FKBP12 active site Q72R Q84E A117H) (DRD E61G G124P)
[1]
  Fold Change: 21.15

B14: FKBP-120: FKBP13 DRD Q72R, Q84E, A117H, K101W; SEQ ID NO: 70 (protein)
chain: B1 chain with R12L, K61W, R77H
modifications: Description of sequence: FKBP13-AcGFP-mCherry Fusion; Construct Name: FKBP-120; FKBP13 DRD in Construct : FKBP13 (mutated to match FKBP12 active site Q72R Q84E A117H) (DRD K101W)
[1]
  Fold Change: 30.53

B15: FKBP-118: FKBP13 DRD Q72R, Q84E, A117H, V85R; SEQ ID NO: 68 (protein)
chain: B1 chain with R12L, V45R, R77H
modifications: Description of sequence: FKBP13-AcGFP-mCherry Fusion; Construct Name: FKBP-118; FKBP13 DRD in Construct : FKBP13 (mutated to match FKBP12 active site Q72R Q84E A117H) (DRD V85R)
[1]
  Fold Change: 12.95

B16: FKBP-265: FKBP13 DRD-AcGFP construct of Table 10 (protein)
chain: B1 chain with R12L, T42W, E44R, V45R, R77W
modifications: Description of sequence: Construct Name: FKBP-265; Mutation(s): Q72R T82W Q84R A117W DRD V85R
FIG. 45, BR1 (Biorep 1)
  Basal: 78
  FC: 53.72
  At 10 uM: 4190
FIG. 45, BR2 (Biorep 2)
  Basal: 102
  FC: 41.58
  At 10 uM: 4241
tacrolimus, FIGS. 31 and 32
  FC: 58
[2]
  Fold Change: 53.72

B17: FKBP-144: FKBP13 DRD Q72R, Q84E, A117H, D50R, E98M; SEQ ID NO: 94 (protein)
chain: B1 chain with D10R, R12L, E58M, R77H
modifications: Description of sequence: FKBP13-AcGFP-mCherry Fusion; Construct Name: FKBP-144; FKBP13 DRD in Construct : FKBP13 (mutated to match FKBP12 active site Q72R Q84E A117H) (DRD D50R E98M)
[1]
  Fold Change: 1.24

B18: FKBP-264: FKBP13 DRD-AcGFP construct of Table 10 (protein)
chain: B1 chain with R12L, S39W, E44R, V45R, R77W
modifications: Description of sequence: Construct Name: FKBP-264; Mutation(s): Q72R S79W Q84R A117W DRD V85R
FIG. 45, BR1 (Biorep 1)
  Basal: 127
  FC: 37.06
  At 10 uM: 4706
[2]
  Fold Change: 37.08

B19: FKBP-119: FKBP13 DRD Q72R, Q84E, A117W, K101W; SEQ ID NO: 69 (protein)
chain: B1 chain with R12L, K61W, R77W
modifications: Description of sequence: FKBP13-AcGFP-mCherry Fusion; Construct Name: FKBP-119; FKBP13 DRD in Construct : FKBP13 (mutated to match FKBP12 active site Q72R Q84E A117W) (DRD K101W )
[1]
  Fold Change: 31.91
